Here are results for three molecules from publication PMC8782398.

Values joined by “and” are separate entries in the source; they are usually repeats but may differ in a detail not shown here. Equal entries are not always repeated.

The target in test [1] is human MOP receptor in HEK293 cells (human), P35372.
Test [2] concerns the target T1, human mu opioid peptide (MOP) receptor in CHO cells (human), P35372.
The target in test [3] is human MOP receptor in HEK293 cells (human), P35372. Nature of the test: radioligand binding.
Test [4] deals with human KOP receptor in CHO cells (human), P41145. Put plainly: radioligand binding.
For test [5], the target named is T2, human delta opioid peptide (DOP) receptor in CHO cells (human), P41143.
T2 chain: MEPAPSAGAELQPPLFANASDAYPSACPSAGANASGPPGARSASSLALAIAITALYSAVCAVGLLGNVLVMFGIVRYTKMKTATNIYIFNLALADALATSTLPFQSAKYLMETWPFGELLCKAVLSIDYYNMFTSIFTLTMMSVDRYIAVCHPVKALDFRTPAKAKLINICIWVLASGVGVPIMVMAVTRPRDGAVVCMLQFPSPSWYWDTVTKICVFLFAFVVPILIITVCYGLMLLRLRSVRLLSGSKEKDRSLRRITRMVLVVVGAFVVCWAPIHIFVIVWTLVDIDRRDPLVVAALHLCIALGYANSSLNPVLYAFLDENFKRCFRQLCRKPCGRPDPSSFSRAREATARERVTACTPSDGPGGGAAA
Nature of the test: radioligand binding.

Test [6] has as its target T1, human mu opioid peptide (MOP) receptor …. Nature of the test: radioligand binding.

T1 sequence (P35372 whole entry): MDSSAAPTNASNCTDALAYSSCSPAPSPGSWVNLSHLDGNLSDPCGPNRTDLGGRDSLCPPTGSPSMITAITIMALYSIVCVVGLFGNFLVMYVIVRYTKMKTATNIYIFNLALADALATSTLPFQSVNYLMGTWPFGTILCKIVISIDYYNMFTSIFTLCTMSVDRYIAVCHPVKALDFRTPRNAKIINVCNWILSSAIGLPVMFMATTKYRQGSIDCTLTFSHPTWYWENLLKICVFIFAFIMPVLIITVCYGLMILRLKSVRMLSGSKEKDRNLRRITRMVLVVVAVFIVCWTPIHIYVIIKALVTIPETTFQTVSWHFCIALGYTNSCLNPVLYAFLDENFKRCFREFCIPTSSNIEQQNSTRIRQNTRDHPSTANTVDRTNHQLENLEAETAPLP
Chain of human MOP receptor in HEK293 cells (human), P35372 (P35372 whole entry): as above
Chain of human KOP receptor in CHO cells (human), P41145 (P41145 whole entry): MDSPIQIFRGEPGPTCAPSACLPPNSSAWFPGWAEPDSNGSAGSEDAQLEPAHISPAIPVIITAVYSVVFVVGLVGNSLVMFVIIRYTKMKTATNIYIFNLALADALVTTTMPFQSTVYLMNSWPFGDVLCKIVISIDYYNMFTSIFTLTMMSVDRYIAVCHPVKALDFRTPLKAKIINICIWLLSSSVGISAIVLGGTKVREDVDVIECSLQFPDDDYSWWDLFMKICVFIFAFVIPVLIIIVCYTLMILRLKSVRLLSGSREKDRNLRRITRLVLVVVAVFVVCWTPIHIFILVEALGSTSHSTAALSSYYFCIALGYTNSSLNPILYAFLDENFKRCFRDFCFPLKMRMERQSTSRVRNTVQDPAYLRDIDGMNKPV

B1: Dermorphin (peptide)
chain: YAFGYPS
modifications: not checked
In test [1], B1 yielded a GTPγ[35S] binding, HEKMOP membranes: Emax (stimulation factor) (stimulation factor) of 1.43 and an inhibition of forskolin-stimulated cAMP formation, HEKMOP cells: Emax (% inhibition) of 75.6%. The molecule also gave a GTPγ[35S] binding, CHOMOP membranes: maximal response (stimulation factor) (stimulation factor) in test [2] of 2.63.

B2: Dermorphin-Nociceptin/Orphanin FQ (DeNO) (peptide)
chain 1: YAFGYPS
chain 2: FGGFTGARKSARKLANQC
modifications: not checked
In test [1], B2 registered a GTPγ[35S] binding, HEKMOP membranes: Emax (stimulation factor) (stimulation factor) of 1.53 and an inhibition of forskolin-stimulated cAMP formation, HEKMOP cells: Emax (% inhibition) of 77.3%. Also, the other in test [3] was 9 and 8.44.

B3: Dermorphin-UFP101 (De101) (peptide)
chain 1: YAFGYPS
chain 2: FGGFTGARKSARKRKNQC
modifications: not checked
B3 returned a GTPγ[35S] binding, HEKMOP membranes: Emax (stimulation factor) (stimulation factor) in test [1] of 1.44. For the same molecule, in test [1], the inhibition of forskolin-stimulated cAMP formation, HEKMOP cells: Emax (% inhibition) came to 73.3%. Besides, in test [2], the GTPγ[35S] binding, CHOMOP membranes: maximal response (stimulation factor) (stimulation factor) came out at 2.71. In addition, the other in test [4] is 7.61; in test [3], 9.28 and 8.63; in test [5], 7.95; in test [6], 9.64.
